Assay results taken from IntAct's records for PubMed 25402481.

B1: ADP-ribosylation factor-like protein 6 (Homo sapiens), Q9H0F7-1 (parent)
chain: MGLLDRLSVLLGLKKKEVHVLCLGLDNSGKTTIINKLKPSNAQSQNILPTIGFSIEKFKSSSLSFTVFDMSGQGRYRNLWEHYYKEGQAIIFVIDSSDRLRMVVAKEELDTLLNHPDIKHRRIPILFFANKMDLRDAVTSVKVSQLLCLENIKDKPWHICASDAIKGEGLQEGVDWLQDQIQTVKT
partner: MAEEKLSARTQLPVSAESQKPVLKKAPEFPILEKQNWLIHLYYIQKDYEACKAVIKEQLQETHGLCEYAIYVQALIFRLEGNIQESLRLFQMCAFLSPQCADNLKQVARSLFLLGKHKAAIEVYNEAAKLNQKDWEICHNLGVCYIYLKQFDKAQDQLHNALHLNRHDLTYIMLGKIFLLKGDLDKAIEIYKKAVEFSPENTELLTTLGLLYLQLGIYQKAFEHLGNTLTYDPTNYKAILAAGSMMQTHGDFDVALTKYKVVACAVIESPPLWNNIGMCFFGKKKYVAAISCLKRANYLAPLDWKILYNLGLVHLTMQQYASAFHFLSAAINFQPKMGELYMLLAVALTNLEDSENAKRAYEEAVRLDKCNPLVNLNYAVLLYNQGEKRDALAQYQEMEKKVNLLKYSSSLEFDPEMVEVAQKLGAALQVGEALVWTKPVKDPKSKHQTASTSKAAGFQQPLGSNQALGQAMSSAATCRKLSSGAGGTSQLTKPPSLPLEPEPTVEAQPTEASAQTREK
B2: BBSome complex member BBS1 (Homo sapiens), Q8NFJ9 (parent)
chain: MAAASSSDSDACGAESNEANSKWLDAHYDPMANIHTFSACLALADLHGDGEYKLVVGDLGPGGQQPRLKVLKGPLVMTESPLPALPAAAATFLMEQHEPRTPALALASGPCVYVYKNLRPYFKFSLPQLPPNPLEQDLWNQAKEDRIDPLTLKEMLESIRETAEEPLSIQSLRFLQLELSEMEAFVNQHKSNSIKRQTVITTMTTLKKNLADEDAVSCLVLGTENKELLVLDPEAFTILAKMSLPSVPVFLEVSGQFDVEFRLAAACRNGNIYILRRDSKHPKYCIELSAQPVGLIRVHKVLVVGSTQDSLHGFTHKGKKLWTVQMPAAILTMNLLEQHSRGLQAVMAGLANGEVRIYRDKALLNVIHTPDAVTSLCFGRYGREDNTLIMTTRGGGLIIKILKRTAVFVEGGSEVGPPPAQAMKLNVPRKTRLYVDQTLREREAGTAMHRAFQTDLYLLRLRAARAYLQALESSLSPLSTTAREPLKLHAVVQGLGPTFKLTLHLQNTSTTRPVLGLLVCFLYNEALYSLPRAFFKVPLLVPGLNYPLETFVESLSNKGISDIIKVLVLREGQSAPLLSAHVNMPGSEGLAAA
partner: B1 chain

Variants of: B1
Details: with bbs4_bovin BBS4, Q1JQ97

Row | effect of a mutation on the interaction | Variant
1 | disrupting interaction strength | R77A
2 | disrupting interaction strength | L100E
3 | disrupting interaction strength | E108A

Variants of: B2
Details: with ARL6, Q9H0F7-1

Row | effect of a mutation on the interaction | Variant
4 | disrupting interaction strength | M390R

Variants of: B2
Details: with ARL6, Q9H0F7-1
Remark: another data set of the same source

Row | effect of a mutation on the interaction | Variant
5 | disrupting interaction strength | R404A
6 | disrupting interaction strength | I399E
